The values below come from patent publication US20200317768A1 (published 2020).

B1: MS_M103205H795-SG1/M103202L889-SK1 (antibody, human IgG1, kappa)
heavy: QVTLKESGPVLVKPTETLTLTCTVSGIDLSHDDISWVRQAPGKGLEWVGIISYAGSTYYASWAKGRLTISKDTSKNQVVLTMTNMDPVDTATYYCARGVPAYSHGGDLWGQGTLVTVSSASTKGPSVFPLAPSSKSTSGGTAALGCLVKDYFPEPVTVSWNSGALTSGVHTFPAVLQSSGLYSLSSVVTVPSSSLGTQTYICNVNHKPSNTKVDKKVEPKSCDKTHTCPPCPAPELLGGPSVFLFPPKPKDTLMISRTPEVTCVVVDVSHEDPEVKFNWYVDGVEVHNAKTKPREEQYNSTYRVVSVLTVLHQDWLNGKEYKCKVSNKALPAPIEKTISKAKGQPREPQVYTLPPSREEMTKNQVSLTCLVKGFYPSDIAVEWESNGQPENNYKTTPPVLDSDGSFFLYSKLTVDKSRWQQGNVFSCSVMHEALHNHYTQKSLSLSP
light: DIVMTQSPATLSLSPGERATLSCTSSQSVYHANWLSWFQQKPGQPPKLLIYWASTLAYGVPSRFSGSGSGTDFTLTISSLQPEDAATYYCAGGYGGGRYAFGQGTKVEIKRTVAAPSVFIFPPSDEQLKSGTASVVCLLNNFYPREAKVQWKVDNALQSGNSQESVTEQDSKDSTYSLSSTLTLSKADYEKHKVYACEVTHQGLSSPVTKSFNRGEC
notes: Parent antibody with heavy chain constant region SG1; also called MS1032LO06-SG1; copies: 2 + 2
B2: M103205H795-MY459/M103202L889-SK1 (antibody, human IgG1, kappa)
heavy: QVTLKESGPVLVKPTETLTLTCTVSGIDLSHDDISWVRQAPGKGLEWVGIISYAGSTYYASWAKGRLTISKDTSKNQVVLTMTNMDPVDTATYYCARGVPAYSHGGDLWGQGTLVTVSSASTKGPSVFPLAPSSKSTSGGTAALGCLVKDYFPEPVTVSWNSGALTSGVHTFPAVLQSSGLYSLSSVVTVPSSSLGTQTYICNVNHKPSNTKVDKKVEPKSCDKTHTCPPCPDPELLTGPSVFLFPPKPKDTLMISRTPEVTCVVVDVSDEDPEVKFNWYVDGVEVHNAKTKPREEQYNSTYRVVSVLTVLHQDWLNGKEYKCKVSNKALPKPIEKTISKAKGQPREPQVYTLPPSREEMTKNQVSLTCLVKGFYPSDIAVEWESNGQPENNYKTTPPVLDSDGSFFLYSKLTVDKSRWQQGNVFSCSVMHEALHNHYTQKSLSLSP
light: B1 light
notes: copies: 2 + 2
B3: M103205H795-MY462/M103202L889-SK1 (antibody, human IgG1, kappa)
heavy: B2 heavy with D233G
light: B1 light
notes: copies: 2 + 2
B4: M103205H795-MY473/M103202L889-SK1 (antibody, human IgG1, kappa)
heavy: B2 heavy with D233T
light: B1 light
notes: copies: 2 + 2
B5: M103205H795-MY448/M103202L889-SK1 (antibody, human IgG1, kappa)
heavy: B2 heavy with D233A, P234K
light: B1 light
notes: copies: 2 + 2
B6: M103205H795-MY470/M103202L889-SK1 (antibody, human IgG1, kappa)
heavy: B2 heavy with D233Q
light: B1 light
notes: copies: 2 + 2
B7: M103205H795-MY465/M103202L889-SK1 (antibody, human IgG1, kappa)
heavy: B2 heavy with D233K
light: B1 light
notes: copies: 2 + 2
B8: M103205H795-MY445/M103202L889-SK1 (antibody, human IgG1, kappa)
heavy: B2 heavy with D233A, P234G
light: B1 light
notes: copies: 2 + 2
B9: M103205H795-MY471/M103202L889-SK1 (antibody, human IgG1, kappa)
heavy: B2 heavy with D233R
light: B1 light
notes: copies: 2 + 2
B10: M103205H795-MY468/M103202L889-SK1 (antibody, human IgG1, kappa)
heavy: B2 heavy with D233N
light: B1 light
notes: copies: 2 + 2
B11: M103205H795-MY463/M103202L889-SK1 (antibody, human IgG1, kappa)
heavy: B2 heavy with D233H
light: B1 light
notes: copies: 2 + 2
B12: M103205H795-MY446/M103202L889-SK1 (antibody, human IgG1, kappa)
heavy: B2 heavy with D233A, P234H
light: B1 light
notes: copies: 2 + 2
B13: M103205H795-MY464/M103202L889-SK1 (antibody, human IgG1, kappa)
heavy: B2 heavy with D233I
light: B1 light
notes: copies: 2 + 2
B14: M103205H795-MY460/M103202L889-SK1 (antibody, human IgG1, kappa)
heavy: B2 heavy with D233E
light: B1 light
notes: copies: 2 + 2
B15: M103205H795-MY447/M103202L889-SK1 (antibody, human IgG1, kappa)
heavy: B2 heavy with D233A, P234I
light: B1 light
notes: copies: 2 + 2
B16: M103205H795-MY441/M103202L889-SK1 (antibody, human IgG1, kappa)
heavy: B2 heavy with D233A, P234A
light: B1 light
notes: copies: 2 + 2
B17: M103205H795-MY472/M103202L889-SK1 (antibody, human IgG1, kappa)
heavy: B2 heavy with D233S
light: B1 light
notes: copies: 2 + 2
B18: M103205H795-MY466/M103202L889-SK1 (antibody, human IgG1, kappa)
heavy: B2 heavy with D233L
light: B1 light
notes: copies: 2 + 2
B19: M103205H795-MY265/M103202L889-SK1 (antibody, human IgG1, kappa)
heavy: B2 heavy with D233A
light: B1 light
notes: also called MS103205H795-MY265; copies: 2 + 2
B20: M103205H795-MY444/M103202L889-SK1 (antibody, human IgG1, kappa)
heavy: B2 heavy with D233A, P234F
light: B1 light
notes: copies: 2 + 2
B21: M103205H795-MY467/M103202L889-SK1 (antibody, human IgG1, kappa)
heavy: B2 heavy with D233M
light: B1 light
notes: copies: 2 + 2
B22: M103205H795-MY469/M103202L889-SK1 (antibody, human IgG1, kappa)
heavy: B2 heavy with D233P
light: B1 light
notes: copies: 2 + 2
B23: M103205H795-MY442/M103202L889-SK1 (antibody, human IgG1, kappa)
heavy: B2 heavy with D233A, P234D
light: B1 light
notes: copies: 2 + 2
B24: M103205H795-MY443/M103202L889-SK1 (antibody, human IgG1, kappa)
heavy: B2 heavy with D233A, P234E
light: B1 light
notes: copies: 2 + 2
B25: M103205H795-MY461/M103202L889-SK1 (antibody, human IgG1, kappa)
heavy: B2 heavy with D233F
light: B1 light
notes: copies: 2 + 2

Numbering of substitutions follows the chain as printed.

T1 sequence (P08637 17-208 F176V): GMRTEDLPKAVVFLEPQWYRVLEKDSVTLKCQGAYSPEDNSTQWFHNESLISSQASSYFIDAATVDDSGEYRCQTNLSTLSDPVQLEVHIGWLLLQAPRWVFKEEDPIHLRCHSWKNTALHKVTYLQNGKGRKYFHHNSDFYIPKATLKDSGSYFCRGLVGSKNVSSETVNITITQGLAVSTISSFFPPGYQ

The first assay concerns the target T1, human FcγRIIIaV extracellular domain, His-tagged (human, UniProt P08637 17-208).
T1 construct: also called FcgRIIIaV; not shown: C-terminal His-tag
In words: SPR (BIACORE), captured antibody, FcgR as analyte.
The Kd is the constant that tells how readily two partners part at equilibrium. A higher Kd goes with lower affinity. As for B1, the Kd amounted to 0.81 µM. In other words, the sub-micromolar range.
Same read-out and setting: the figure for B2 is 8.7 µM; for B3 it is 5.4 µM.
Molecule B4 registered a Kd of 5.2 µM.
Still for that read-out and setting: the figure for B5 is 13 µM; for B6 it is 5.1 µM; for B7 it is 5.5 µM.
Turning to B8, the equilibrium dissociation constant (Kd) amounted to 9.5 µM.
As to B9, the equilibrium dissociation constant (Kd) is 5.3 µM. Against the preceding molecule, the Kd is about 1.8-fold lower.
Molecule B10 yielded a Kd of 6.8 µM.
B11 had a dissociation constant Kd of 4.3 µM.
On to B12, for which the Kd was found to be 7.1 µM. Against the preceding molecule, the Kd is about 1.7-fold higher.
Same read-out and setting: the figure for B13 is 4.4 µM; for B14 it is 6.7 µM; for B15 it is 4 µM.
On to B16, for which the Kd worked out at 8.1 µM.
Turning to B17, the equilibrium dissociation constant (Kd) stood at 6.3 µM.
B18 came in with a Kd of 4.3 µM.
Regarding B19, binding was characterised by a dissociation constant (Kd) of 54 µM.
B20 yielded a Kd of 5.2 µM. Against the preceding molecule, the Kd is about 10-fold lower.
On to B21, for which the equilibrium dissociation constant (Kd) is 4.8 µM.
The molecule B22 yielded a Kd of 5.9 µM.
With B23, the dissociation constant (Kd) is 4.7 µM.
Consider B24, for which the Kd is 5.9 µM. The Kd values of the last two molecules are within 1.5-fold of each other.
In the case of B25, the Kd is 5.4 µM. The Kd values of the last two molecules are within 1.5-fold of each other.

The next assay has as its target T2, human FcγRIIb extracellular domain, His-tagged (human, UniProt P31994 43-217).
T2 construct: also called FcgRIIb (human); not shown: C-terminal His-tag
T2 sequence: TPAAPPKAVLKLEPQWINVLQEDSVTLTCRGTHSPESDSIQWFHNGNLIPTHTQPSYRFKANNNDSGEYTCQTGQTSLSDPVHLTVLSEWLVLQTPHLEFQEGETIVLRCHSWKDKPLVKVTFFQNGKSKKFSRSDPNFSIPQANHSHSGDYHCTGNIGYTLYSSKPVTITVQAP
In words: SPR (BIACORE), captured antibody, FcgR as analyte. (In general: SPR reads the build-up and loss of mass on a sensor chip optically.)
As to B1, the Kd was 4.6 µM.
Still for that read-out and setting: as for B2, the figure is 2.5 µM; as for B3, 1.9 µM.
Molecule B4 had a Kd of 2.2 µM. The Kd values of the last two molecules are within 1.5-fold of each other.
Regarding B5, the affinity, expressed as Kd, was 8.4 µM.
Still for that read-out and setting: the figure for B6 is 2.7 µM; for B7 it is 2.8 µM.
Consider B8, for which the affinity, expressed as Kd, was 4.2 µM.
As for B9, the equilibrium dissociation constant (Kd) was determined as 2.8 µM. Against the preceding molecule, the Kd is about 1.5-fold lower.
B10: binding was put at a Kd of 2.6 µM. The Kd values of the last two molecules are within 1.5-fold of each other.
Molecule B11 returned an equilibrium dissociation constant (Kd) of 2.8 µM.
The molecule B12 came in with a Kd of 2.4 µM.
Molecule B13 showed a dissociation constant (Kd) of 1.6 µM.
With B14, the dissociation constant Kd worked out at 2.4 µM.
In the case of B15, the equilibrium dissociation constant (Kd) turned out to be 0.44 µM.
On to B16, for which the dissociation constant (Kd) was 2.8 µM. Compared with the last molecule, the Kd is about 6.4-fold higher.
The molecule B17 registered a Kd of 2.5 µM.
On the same count and under the same terms, the figure for B18 is 1.4 µM; for B19 it is 2.2 µM.
On to B20, for which binding was put at a Kd of 0.74 µM.
B21: binding was put at a Kd of 2 µM.
B22 came in with an equilibrium dissociation constant (Kd) of 2.4 µM.
Still for that read-out and setting: the figure for B23 is 1.8 µM; for B24 it is 2.8 µM.
For B25, binding was characterised by a dissociation constant (Kd) of 1.7 µM.
